Experimental data taken from paper PMC3338718, “Characterization of a Novel ArsR-Like Regulator Encoded by Rv2034 in Mycobacterium tuberculosis”.

How the values were obtained:
[1] = molecular target: T1, Rv2034C61A C61A (Mycobacterium tuberculosis) (UniProt O53478); assay: EMSA
T1 sequence: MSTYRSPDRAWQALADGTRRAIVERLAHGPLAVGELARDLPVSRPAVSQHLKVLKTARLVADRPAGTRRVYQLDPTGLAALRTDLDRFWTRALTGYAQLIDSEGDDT

[2] = molecular target: T2, Rv2034AE A32G;E35G (Mycobacterium tuberculosis) (UniProt O53478); assay: EMSA
T2 sequence: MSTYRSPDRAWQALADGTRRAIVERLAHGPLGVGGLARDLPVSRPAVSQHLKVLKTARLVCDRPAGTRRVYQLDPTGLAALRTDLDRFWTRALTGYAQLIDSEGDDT

[3] = molecular target: T3, Rv2034 (ArsR family regulator) (Mycobacterium tuberculosis, UniProt O53478 1-107); assay: EMSA; up to 1.2 uM protein; conditions: protein: recombinant, tags: N-terminal His6 (pET28a), chain copies: 2, label: 5' label (32P or FITC)
T3 sequence: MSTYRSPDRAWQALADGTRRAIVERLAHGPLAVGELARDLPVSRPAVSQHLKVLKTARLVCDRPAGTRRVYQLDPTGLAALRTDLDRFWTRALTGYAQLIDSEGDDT

[4] = molecular target: T3, Rv2034 (ArsR family regulator); assay: EMSA; 0.1-1.2 uM protein; conditions: protein: recombinant, tags: N-terminal His6 (pET28a), chain copies: 2, label: 5' label (32P or FITC)

“AATTTCTAGAGCCTGCGGCAAGCACGTCGGTTCCATAGCGATCCAGCACGCCGCAATACTAGGGAGCCTCTCTGCCGGTCATCGCCGCGACGCGCCGCATGGGTTCTCGGAAAATGCTTGTACCAGTCGACTTTCCGGCGGGCCAACGTCGCCAACCGATACTCGGCTCCAACGCCATGGGTGACGGGATGCCCGGATCACGTGTCACACCACCCGCGCACCCTTGCGGAAGAATATCCGTAAGTCTAAACTTACGGTTCGAATTCCCGG (double strand) [Rv2034p promoter]” was tested, and the binding [1] was “no binding” and the binding [2] was “no binding”.

B1: Rv2034BSmu2 (dsDNA)
DNA 1: GGAAGAATATGGCATTCACTAAACTGCATGTTCGTGTCCA
DNA 2: TGGACACGAACATGCAGTTTAGTGAATGCCATATTCTTCC
B1: no binding ([3]; blunt).

B2: Rv2034BSmu3 (dsDNA)
DNA 1: GGAAGAATATCCGTAAGTCTGATAAAACTTACGGTTCGTGTCCA
DNA 2: TGGACACGAACCGTAAGTTTTATCAGACTTACGGATATTCTTCC
B2: binds ([4]; blunt).

B3: Rv2034BSmu4 (dsDNA)
DNA 1: AGAGTTGATACCGTAAGTTAGCACTTACGGACTTAAGGTT
DNA 2: AACCTTAAGTCCGTAAGTGCTAACTTACGGTATCAACTCT
B3: binds [4].

B4: Rv2034BSmu5 (dsDNA)
DNA 1: GGAAGAATATGGCATTCACTAACAGGCATATTCGTGTCCA
DNA 2: TGGACACGAATATGCCTGTTAGTGAATGCCATATTCTTCC
B4: no binding [3].
